The target of the assay is goat IgG (goat). Put plainly: binding capacity used to set the particle load for goat serum; method not stated. The note with it: scale: mg IgG per 5 g wet weight polymer particles.

The substance “PhaC-(GB1)3 polymer particles (PHB polymer particles displaying (GB1)3, from plasmid pET-14b PhaC-(GB1)3) (from UniProt P23608 1-589; P06654 228-282; P06654 228-282; P06654 228-282)” had an IgG binding capacity above 220.

The values above are taken from patent US20130337528A1.
